In US20220056134A1 (Genentech, published 2022):
Changes are numbered by the printed parent chain. Names and notes keep the numbering of the source.

B1: Parental anti-IL-13 Fab (lebrikizumab) (Fab, V domains shown)
VH: EVTLRESGPALVKPTQTLTLTCTVSGFSLSAYSVNWIRQPPGKALEWLAMIWGDGKIVYNSALKSRLTISKDTSKNQVVLTMTNMDPVDTATYYCAGDGYYPYAMDNWGQGSLVTVSS
VL: DIVLTQSPDSLSVSLGERATINCRASKSVDSYGNSFMHWYQQKPGQPPKLLIYLASNLESGVPDRFSGSGSGTDFTLTISSLQAEDVAVYYCQQNNEDPRTFGGGTKVEIK
notes: Tested as Fab
B2: anti-IL-13 Fab variant CDR H3 D95A:P99A (Fab, name in Kabat numbering, V domains shown)
VH: B1 VH with D98A, P102A
VL: B1 VL
notes: Fab; variable domains only; Kabat numbering
B3: anti-IL-13 Fab variant CDR H3 P99A (Fab, name in Kabat numbering, V domains shown)
VH: B1 VH with P102A
VL: B1 VL
notes: as for B2
B4: anti-IL-13 Fab variant CDR L3 D94A:R96A (Fab, V domains shown)
VH: B1 VH
VL: B1 VL with D98A, R100A
notes: Fab; variable domains only; Kabat numbering; also called D94: R96A double substitution
B5: anti-IL-13 Fab variant CDR L3 D94A (Fab, V domains shown)
VH: B1 VH
VL: B1 VL with D98A
notes: as for B2
B6: anti-IL-13 Fab variant CDR L3 R96A (Fab, V domains shown)
VH: B1 VH
VL: B1 VL with R100A
notes: as for B2
B7: anti-IL-13 Fab variant CDR L3 N92A (Fab, V domains shown)
VH: B1 VH
VL: B1 VL with N96A
notes: as for B2
B8: anti-IL-13 Fab variant CDR H3 D95A (Fab, name in Kabat numbering, V domains shown)
VH: B1 VH with D98A
VL: B1 VL
notes: as for B2
B9: Parental anti-MET Fab (onartuzumab / 5D5) (Fab, V domains shown)
VH: EVQLVESGGGLVQPGGSLRLSCAASGYTFTSYWLHWVRQAPGKGLEWVGMIDPSNSDTRFNPNFKDRFTISADTSKNTAYLQMNSLRAEDTAVYYCATYRSYVTPLDYWGQGTLVTVSS
VL: DIQMTQSPSSLSASVGDRVTITCKSSQSLLYTSSQKNYLAWYQQKPGKAPKLLIYWASTRESGVPSRFSGSGSGTDFTLTISSLQPEDFATYYCQQYYAYPWTFGQGTKVEIK
notes: Tested as Fab
B10: anti-MET Fab variant CDR L3 P95A (Fab, V domains shown)
VH: B9 VH
VL: B9 VL with P101A
notes: as for B2
B11: anti-MET Fab variant CDR L3 W96A (Fab, V domains shown)
VH: B9 VH
VL: B9 VL with W102A
notes: as for B2
B12: anti-MET Fab variant CDR L3 Y91A (Fab, V domains shown)
VH: B9 VH
VL: B9 VL with Y97A
notes: Fab; variable domains only
B13: anti-MET Fab variant CDR L3 Y94A (Fab, V domains shown)
VH: B9 VH
VL: B9 VL with Y100A
notes: as for B2
B14: anti-MET Fab variant CDR L3 Y92A (Fab, V domains shown)
VH: B9 VH
VL: B9 VL with Y98A
notes: as for B2
B15: anti-MET Fab variant CDR L3 Y91A:W96A (Fab, V domains shown)
VH: B9 VH
VL: B9 VL with Y97A, W102A
notes: as for B2
B16: anti-MET Fab variant CDR L3 Y91A:Y94A (Fab, V domains shown)
VH: B9 VH
VL: B9 VL with Y97A, Y100A
notes: as for B2

What was measured:
HER2-ECD (in house) [1] = biological target: HER2-ECD (in house) (UniProt P04626); assay: SPR (BIAcore T200), Fab captured on anti-Fab chip, HER2-ECD as analyte, 25 C, 1:1 model
HER2-ECD (in house) [2] = biological target: HER2-ECD (in house) (UniProt P04626); assay: SPR (refers to Table G3)
IL-13 (in-house) [3] = biological target: T1, IL-13 (in-house) (UniProt P35225 35-146, limits assumed); assay: SPR (BIAcore T200), Fab captured on anti-Fab chip, IL-13 as analyte, 25 C, 1:1 model
T1 construct: SPR analyte

IL-13 (in-house) [4] = biological target: T1, IL-13 (in-house); assay: SPR (BIAcore T200), Fab captured on anti-Fab chip, IL-13 as analyte; n.d. = binding was not detected
IL-13 (in-house) [5] = biological target: T1, IL-13 (in-house); assay: SPR
[6] = biological target: T2, MET-R Fc (R&D Systems, catalog number 8614-MT) (UniProt P08581 25-932); assay: SPR (BIAcore T200), Fab captured on anti-Fab chip, MET-R Fc as analyte, 25 C, 1:1 model
T2 construct: Bought reagent used as SPR analyte; not shown: Fc part of the bought fusion protein

[7] = biological target: T2, MET-R Fc (R&D Systems, catalog number …); assay: SPR (BIAcore T200), Fab captured on anti-Fab chip, MET-R Fc as analyte; n.d. = binding was not detected

| Molecule | Kd (IL-13 (in-house) [3]) | koff (IL-13 (in-house) [3]) | kon (IL-13 (in-house) [3]) | Kd [6] | koff [6] | kon [6] | also measured |
| --- | --- | --- | --- | --- | --- | --- | --- |
| anti-HER2 Fab variant CDR H3 W95D |  |  |  |  |  |  | Kd (HER2-ECD (in house) [1]): 36.5 nM; koff (HER2-ECD (in house) [1]): 0.00294 s⁻¹; kon (HER2-ECD (in house) [1]): 80000 M⁻¹ s⁻¹; fold change of KD against the unmodified parent (HER2-ECD (in house) [2]): 30 fold |
| B1 | 0.05 nM | 5e-05 s⁻¹ | 1.17e+06 M⁻¹ s⁻¹ |  |  |  |  |
| B2 |  |  |  |  |  |  | binding result (IL-13 (in-house) [4]): no binding (tested: analyte up to 20 mM as printed) |
| B3 | 1.8 nM | 0.00269 s⁻¹ | 1.5e+06 M⁻¹ s⁻¹ |  |  |  |  |
| B4 | 0.7 nM | 0.00037 s⁻¹ | 528000 M⁻¹ s⁻¹ |  |  |  | fold loss in binding affinity against the parental anti-IL-13 Fab (IL-13 (in-house) [5]): ~10 fold |
| B5 | 0.02 nM | 3e-05 s⁻¹ | 1.24e+06 M⁻¹ s⁻¹ |  |  |  |  |
| B6 | 0.5 nM | 0.00044 s⁻¹ | 825000 M⁻¹ s⁻¹ |  |  |  | fold loss in binding affinity against the parental anti-IL-13 Fab (IL-13 (in-house) [5]): ~10 fold |
| B7 | 0.03 nM | 3e-05 s⁻¹ | 1.03e+06 M⁻¹ s⁻¹ |  |  |  |  |
| B8 | 1.3 nM | 0.00111 s⁻¹ | 882000 M⁻¹ s⁻¹ |  |  |  |  |
| B9 |  |  |  | < 0.05 nM | < 1e-05 s⁻¹ | 179000 M⁻¹ s⁻¹ |  |
| B10 |  |  |  | < 0.06 nM | < 1e-05 s⁻¹ | 153000 M⁻¹ s⁻¹ |  |
| B11 |  |  |  | 2.1 nM | 0.00017 s⁻¹ | 84000 M⁻¹ s⁻¹ |  |
| B12 |  |  |  | 0.8 nM | 6e-05 s⁻¹ | 70000 M⁻¹ s⁻¹ |  |
| B13 |  |  |  | 5.7 nM | 0.00065 s⁻¹ | 115000 M⁻¹ s⁻¹ |  |
| B14 |  |  |  | 1.1 nM | 0.00019 s⁻¹ | 172000 M⁻¹ s⁻¹ |  |
| B15 |  |  |  |  |  |  | binding result [7]: no binding (tested: analyte up to 75 nM) |
| B16 |  |  |  |  |  |  | binding result [7]: no binding (tested: analyte up to 75 nM) |
